{
  "source": "patent US20260258115A1",
  "about": "(MAPP BIOPHARMACEUTICAL, published 2026)",
  "binders": {"B1": {"name": "ADI-14366 (antibody, V domains shown)", "VH": "QVQLVQSGTEVKKPGASVKVSCKASGYTFNMYGVSWVRQAPGQGLEWMGWISAYNGNTNYAQKFQGRVTMTIDTSTTTAYMELRSLRSDDTAMYYCARDFQAEEPLSNWFDPWGQGTLVTVSS", "VL": "DIVMTQTPSSLSASVGDRVIITCRASQSISRYINWYQKKPGKAPKFLIYAVSSLGSGVPSRFSGSGSGTDFTLTISSLQPEDFATYYCQQSYSTPFTFGPGTKVDIK", "notes": "full-length IgG; also called Ab 34"}, "B2": {"name": "ADI-14392 (antibody, V domains shown)", "VH": "EVQLLESGAEVKKPGSSVKVSCKASGGTFSSYGISWVRQAPGQGLEWMGGIIPIFGTSNYAQKFQGRVTITADESTSTAYMELSSLRSEDTAVYYCALDSSGRARYYAMDVWGQGTTVTVSS", "VL": "DIQVTQSPATLSLSPGERATLSCRASQSVSSYLAWYQQKPGQAPRLLIYDASNRATGIPARFSGSGSGTDFTLTISSLEPEDFAVYYCQQRNNWPPTFGPGTKVEIK", "notes": "full-length IgG; also called Ab 59"}, "B3": {"name": "ADI-24856 (antibody, V domains shown)", "VH": "QVQLVQSGAEVKKPGASVKVSCKASGYTFTSYGISWVRQAPGQGLEWMGWISAYNGNTNYAQKLQGRVTMTTDTSTSTAYMELRSLRSDDTAVYYCARAGIVVVPKYYYYMDVWGKGTTVTVSS", "VL": "not shown", "notes": "full-length IgG"}, "B4": {"name": "ADI-24855 (antibody, V domains shown)", "VH": "EVQLVESGGGLVKPGGSLRLSCAASGFTFSSYSMNWVRQAPGKGLEWVSSISSSSSYIYYADSVKGRFTISRDNAKNSLYLQMNSLRAEDTAVYYCARRYCTNGVCYDAFDIWGQGTMVTVSS", "VL": "QSVVTQPPSVSGAPGQRVTISCTGSSSNIGAGYDVHWYQQLPGTAPKLLIYGNSNRPSGVPDRFSGSKSGTSASLAITGLQAEDEADYYCQSYDSSLSYVFGTGTKVTVL", "notes": "full-length IgG"}, "B5": {"name": "ADI-24861 (antibody, V domains shown)", "VH": "QVQLVQSGGGLVKPGGSLRLSCAASGFTFSSYSMNWVRQAPGKGLEWVSSISGGSSYIYYADSVKGRFTISRDNAKNSLYLQMNSLRAEDTAVYYCAREAYYYDSSGLKWFDPWGQGTLVTVSS", "VL": "B4 VL with V4L, S98G, Y99W, T103G, V107L", "notes": "full-length IgG"}, "B6": {"name": "ADI-25577 (antibody, V domains shown)", "VH": "QVTLKESGGGLVKPGGSLRLSCAASGFTFSSYSMNWVRQAPGKGLEWVSSISSSSSYIYYADSVKGRFTISRDNAKNSLYLQMNSLRAEDTAVYYCARYSSSLGAFDIWGQGTMVTVSS", "VL": "B4 VL with V3A, V4L, Y99D, V107L", "notes": "full-length IgG"}, "B7": {"name": "ADI-22771 (antibody, V domains shown)", "VH": "EVQLVESGGGLVKPGGSLRLSCAASGFTFSSYSMNWVRQAPGKGLEWVSSISSSSSYIYYADSVKGRFTISRDNAKNSLYLQMNSLRAEDTAVYYCARDYSSGWYYFDYWGQGTLVTVSS", "VL": "QPVLTQPPSVSGAPGQRVTISCTGSSSNIGAGYDVHWYQQLPGTAPKLLIYGNSNRPSGVPDRFSGSKSGTSASLAITGLQAEDEADYYCQSYDSSLSGSVFGGGTKLTVL", "notes": "full-length IgG; also called Ab 350"}, "B8": {"name": "ADI-19467 (antibody, V domains shown)", "VH": "EVQLVESGGGLVKPGGSLRLSCAASGFTFSSYSMNWVRQAPGKGLEWVSSISSSSSYIYYADSVKGRFTISRDNAKNSLYLQMNSLRAEDTAVYYCASLSSSSELGYYFDYWGQGTLVTVSS", "VL": "B7 VL with S100Y, G104T", "notes": "full-length IgG"}, "B9": {"name": "ADI-25565 (antibody, V domains shown)", "VH": "B4 VH with R99I, Y100R, C101F, T102D, N103Y, V105S, C106G, Y107S, D108Y", "VL": "B7 VL", "notes": "full-length IgG"}, "B10": {"name": "ADI-24848 (antibody, V domains shown)", "VH": "B7 VH with Y100T, S101V, S102V, G103A, W104G, Y105I", "VL": "B7 VL with P2S, S100V", "notes": "full-length IgG"}, "B11": {"name": "ADI-25559 (antibody, V domains shown)", "VH": "EVQLLESGGGLVKPGGSLRLSCAASGFTFSSYSMNWVRQAPGKGLEWVSSISSSSSYIYYADSVKGRFTISRDNAKNSLYLQMNSLRAEDTAVYYCARDAAAKYYFDYWGQGTLVTVSS", "VL": "B7 VL with S100K, G104T", "notes": "full-length IgG"}, "B12": {"name": "ADI-19493 (antibody, V domains shown)", "VH": "QVQLQQWGAGLLKPSETLSLTCAVYGGSFSGYYWSWIRQPPGKGLEWIGEINHSGSTNYNPSLKSRVTISVDTSKNQFSLKLSSVTAADTAVYYCARLIENTRVGEYYFDYWGQGTLVTVSS", "VL": "not shown", "notes": "full-length IgG"}, "B13": {"name": "ADI-21048 (antibody, V domains shown)", "VH": "EVQLVESGAEVKKPGASVKVSCKASGYTFSSHAISWVRQAPGHGLEWMGWISVFNGNTNYAQKFQGRVTMTTDTSTSTAYMELRSLRSDDAAVYYCAREVIGVGEFYFDYWGQGTLVTVSS", "VL": "QSVLTQPPSVSVAPGQTARITCGGNNIGSKSVHWYQQKAGQAPVLVVYDDSDRPSGIPERFLGSNSGNTATLTISRVEAGDEADYYCQVWDSSGDFHVFGTGTKVTVL"}, "B14": {"name": "ADI-21031 (antibody, V domains shown)", "VH": "EVQLVESGPGLVKPSQTLSLTCTVSGGSISNSNYFWSWIRQPAGKGLEWIGRVHSSGTTSYNPSLKSRITISVDASESQFSLNLTSVTAADTAIYYCARDSSDWGLGWYFDLWGRGTLVTVSS", "VL": "ETTLTQSPATLSLSPGERATLSCRASQSVTFYLAWYQHKPGQAPRLLIFDASKRATGIPARFSGSGSGTDFTLTISSLEPEDFALYYCQQRSDWPQTFGQGTKVDIK"}, "B15": {"name": "ADI-14579 (antibody, V domains shown)", "VH": "QVQLVQSGAEVKKPGESLKISCKVSGYSFTSYWIGWVRQMPGKGLEWMGIIYPGDSDTRYSPSFQGQVTISADKSITTAYLQWSSLKASDTAMYYCARPAHSSSWYGAFDLWGQGTTVTVSS", "VL": "DIQMTQSPSSLSASVGDRVTITCRASQGISNYLAWYQQKPGKVPKLLIYAASTLQSGVPSRFSGSGSGTDFTLTISSLQPEDVATYYCQKYNSAPLTFGGGTKVEIK"}, "B16": {"name": "ADI-20994 (antibody, V domains shown)", "VH": "QVQLVQSGAEVKKPGASVKVSCKASGYTFSSNVIGWVRQAPGQGLEWMGWISTNNGNTKYGQKFQGRVTMTTDPSTSTAYMELRSLRSDDTAFYYCARESLGMGGFYFDYWGQGTLVTVSS", "VL": "QPVLTQPPSVSVAPGQTARITCGGDNIGSKSVHWYQQKPGQAPVLVVYDDSDRPSGIPERFSGSNSGNTASLTISRVEAGDEADYCCQVWDSGSDLWVFG"}, "B17": {"name": "ADI-21035 (antibody, V domains shown)", "VH": "EVQLVESGHEVKKPGASVKVSCKASGYTFPSYGISWVRQAPGQGLEWMGWIVPYNGNTKYAQRFQGRITMTTDSPTSTASMELRGLRSDDTAVYYCARVFGDGYSYGYEYWGQGTLVTVSS", "VL": "DIVLTQSPSTLSASVGDRVTITCRASQSISIWLAWYQQKPGKAPKLLIYKTSELVSGVPSRFSGSGSGTEFTLTISGLQPDDFATYYCQQGNSYSHTFGQGTKVEIK"}, "B18": {"name": "ADI-20965 (antibody, V domains shown)", "VH": "QVQLVQSGAEVKKPGASVKVSCKASGYNFTNYGISWVRQAPGQGLEWMGWISTSNGNTHYAQKSQGRITLTTDTSTNTAYMEVRSLRSDDTAVYYCAREGPESTYDWYHFDSWGQGTLVTVSS", "VL": "QSVVTQPPSVSVAPGQTAKITCGGNNIGSKTVHWYQLKAGQAPVLVVYDDSDRPSGIPERFSGSNSGNTATLTIRRVEAGDEADYFCQVWESASDHWVFGGGTKLTVL"}, "B19": {"name": "ADI-21060 (antibody, V domains shown)", "VH": "EVQLVESGGGLVKPGGSLRLSCEASGFRLSDYYMTWIRQAPGKGLECISYISGGSTFKSYSDSVKGRFTISRDNTNLYLQMNSLRVEDTAVYYCARAPYLIYYMDVWGKGTTVTVSS", "VL": "QPVLTQPPSVSGAPGQRVSISCTGSNSNIGAGYDVHWYQQLPGTPPKLLIYDNNNRPSGVPDRFSGSKSGTSASLAITGLQAEDEADYYCQSYDNRLSGSQVLFGGGTKVTVL"}, "B20": {"name": "ADI-21009 (antibody, V domains shown)", "VH": "QVQLVQSGAEMKTPGASVKVSCKASGYSFSNYGFTWVRQAPGQGLEWMGWISGYSAKTNYAQDLQGRVTMTIDTSTSTSYMELRSLRSDDTAVYYCARDPLGYFGSGTYRGGAFDFWGQGTTVTVSS", "VL": "QSALTQPASVSGSPGQSITLSCTGTNNDVGSYHLVSWYQQYPGKAPKLVIYEVTKRPSGVSNRFSGSKSGNTASLTISGLQPEDEADYYCCSYAGDRRIFGGGTKVTVL", "notes": "also called Ab 260"}, "B21": {"name": "ADI-14575 (antibody, V domains shown)", "VH": "QVQLVQSGAEVKKPGSSVKVSCKASGGTFSSYTISWVRQAPGQGLEWMGRIIPILGIANYAQKFQGRVTITADKSTSTAYMELSSLRSEDTAVYYCARPSSSSFAFDYWGQGTLVTVSS", "VL": "QSVLTQPASVSGSPGQSITISCTGTSSDVGGYNYVSWYQQHPGKAPKLMIYDVSNRPSGVSNRFSGSKSGNTASLTISGLQAEDEADYYCSSYTSSSTPVVFGGGTKVTVL"}},
  "note": "Numbering of substitutions follows the chain as printed.",
  "data": [
    {"target": "T1, RSV prefusion F (preF), subtype B (respiratory syncytial virus subtype B)", "T1 construct": "also called Prefusion subtype B", "assay": "BLI, IgG", "units": {"Kd": "nM"}, "values": [
      {"binder": "B1", "Kd": 18},
      {"binder": "B2", "Kd": 72.5},
      {"binder": "B3", "Kd": 4.91},
      {"binder": "B4", "Kd": 28},
      {"binder": "B5", "Kd": 0.461},
      {"binder": "B6", "Kd": 44.2},
      {"binder": "B7", "Kd": 9.41},
      {"binder": "B8", "Kd": 37.7},
      {"binder": "B9", "Kd": 35.7},
      {"binder": "B10", "Kd": 35.6},
      {"binder": "B11", "Kd": 33.3},
      {"binder": "B12", "Kd": 22.6}
    ]},
    {"target": "RSV prefusion F (preF), subtype A (respiratory syncytial virus, subtype A, UniProt P03420 26-513)", "assay": "BLI, IgG", "units": {"Kd": "nM"}, "values": [
      {"binder": "B13", "Kd": 0.111},
      {"binder": "B14", "Kd": 1.07},
      {"binder": "B15", "Kd": 7.54},
      {"binder": "B16", "Kd": 0.0894},
      {"binder": "B17", "Kd": 10.3},
      {"binder": "B18", "Kd": 0.121},
      {"binder": "B19", "Kd": 0.426},
      {"binder": "B20", "Kd": 4.88},
      {"binder": "B21", "Kd": 11.2}
    ]},
    {"target": "RSV prefusion F (preF), subtype B (respiratory syncytial virus, subtype B)", "assay": "BLI, IgG", "units": {"Kd": "nM"}, "values": [
      {"binder": "B14", "Kd": 1.5},
      {"binder": "B15", "Kd": 3.73},
      {"binder": "B16", "Kd": 0.109},
      {"binder": "B18", "Kd": 0.533},
      {"binder": "B19", "Kd": 0.349},
      {"binder": "B20", "Kd": 19.5}
    ]},
    {"target": "T2, RSV postfusion F (postF), subtype A (respiratory syncytial virus subtype A, UniProt P03420 26-513)", "T2 construct": "also called Postfusion subtype A; F deltaFP", "assay": "BLI", "values": [
      {"binder": "B1", "binding result": "no binding"},
      {"binder": "B2", "binding result": "no binding"},
      {"binder": "B3", "binding result": "no binding"},
      {"binder": "B4", "binding result": "no binding"},
      {"binder": "B5", "binding result": "no binding"},
      {"binder": "B6", "binding result": "no binding"},
      {"binder": "B7", "binding result": "no binding"},
      {"binder": "B8", "binding result": "no binding"},
      {"binder": "B9", "binding result": "no binding"},
      {"binder": "B10", "binding result": "no binding"},
      {"binder": "B11", "binding result": "no binding"},
      {"binder": "B12", "binding result": "no binding"}
    ]}
  ]
}
